Measurements: patent publication US20170007714A1 (ONCOMATRYX BIOPHARMA S L, published 2017)

T1: mouse Endoglin on eEnd2 cells (mouse, UniProt Q63961 27-653)
T1 construct: also called ENG expressing mouse eEnd2
T1 sequence: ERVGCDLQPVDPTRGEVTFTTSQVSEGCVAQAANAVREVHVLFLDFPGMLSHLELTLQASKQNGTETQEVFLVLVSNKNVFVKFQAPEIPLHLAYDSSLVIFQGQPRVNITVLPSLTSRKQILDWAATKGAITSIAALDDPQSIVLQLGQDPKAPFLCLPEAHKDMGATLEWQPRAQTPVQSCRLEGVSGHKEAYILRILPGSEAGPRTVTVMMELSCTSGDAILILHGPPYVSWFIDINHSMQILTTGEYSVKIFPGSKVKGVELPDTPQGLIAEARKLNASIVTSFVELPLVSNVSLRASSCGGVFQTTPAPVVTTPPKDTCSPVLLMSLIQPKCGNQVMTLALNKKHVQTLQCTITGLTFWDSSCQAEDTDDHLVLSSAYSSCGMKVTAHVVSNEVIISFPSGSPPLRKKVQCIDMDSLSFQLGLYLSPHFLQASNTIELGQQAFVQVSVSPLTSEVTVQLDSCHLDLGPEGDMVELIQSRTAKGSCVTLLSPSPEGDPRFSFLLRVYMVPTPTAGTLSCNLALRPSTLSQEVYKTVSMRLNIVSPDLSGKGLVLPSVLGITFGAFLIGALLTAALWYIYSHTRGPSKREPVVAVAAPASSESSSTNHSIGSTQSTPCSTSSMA

T2: recombinant mouse ENG (aa 27-581) (mouse, UniProt Q63961 27-581)
T2 construct: also called rmENG; recombinant mouse Endoglin
T2 sequence: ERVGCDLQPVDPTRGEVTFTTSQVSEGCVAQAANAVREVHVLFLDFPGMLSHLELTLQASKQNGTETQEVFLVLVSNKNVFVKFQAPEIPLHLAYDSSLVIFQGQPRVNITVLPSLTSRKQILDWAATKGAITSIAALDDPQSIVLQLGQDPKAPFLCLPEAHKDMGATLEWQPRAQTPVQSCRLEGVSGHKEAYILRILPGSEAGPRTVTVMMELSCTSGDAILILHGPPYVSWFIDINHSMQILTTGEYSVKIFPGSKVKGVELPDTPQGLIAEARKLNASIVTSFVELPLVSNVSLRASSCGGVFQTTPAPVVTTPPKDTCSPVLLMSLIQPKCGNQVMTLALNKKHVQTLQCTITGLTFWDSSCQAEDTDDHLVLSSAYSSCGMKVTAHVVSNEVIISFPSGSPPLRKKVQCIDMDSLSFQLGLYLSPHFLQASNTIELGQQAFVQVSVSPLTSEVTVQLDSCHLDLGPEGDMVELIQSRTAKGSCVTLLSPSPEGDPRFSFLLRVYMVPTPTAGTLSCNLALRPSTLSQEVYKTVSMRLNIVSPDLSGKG

T3: human Endoglin on HT1080 cells (human, UniProt P17813 26-658)
T3 construct: also called ENG-positive HT1080
T3 sequence: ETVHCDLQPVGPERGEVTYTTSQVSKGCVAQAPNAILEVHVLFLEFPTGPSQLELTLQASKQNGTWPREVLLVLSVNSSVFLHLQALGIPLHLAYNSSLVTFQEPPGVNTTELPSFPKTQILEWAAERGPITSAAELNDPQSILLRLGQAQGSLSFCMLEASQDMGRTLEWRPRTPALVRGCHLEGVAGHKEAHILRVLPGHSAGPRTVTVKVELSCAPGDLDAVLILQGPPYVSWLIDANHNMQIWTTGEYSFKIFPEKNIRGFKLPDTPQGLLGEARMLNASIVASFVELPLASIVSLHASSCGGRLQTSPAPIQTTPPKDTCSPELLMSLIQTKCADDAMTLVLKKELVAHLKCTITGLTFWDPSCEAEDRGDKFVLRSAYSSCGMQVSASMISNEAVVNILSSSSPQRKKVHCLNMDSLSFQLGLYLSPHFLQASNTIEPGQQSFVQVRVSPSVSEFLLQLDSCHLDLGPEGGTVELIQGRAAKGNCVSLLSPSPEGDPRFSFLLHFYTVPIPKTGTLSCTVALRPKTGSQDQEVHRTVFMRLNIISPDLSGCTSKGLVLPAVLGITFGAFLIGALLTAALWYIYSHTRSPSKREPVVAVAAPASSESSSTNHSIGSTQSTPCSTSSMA

T4: recombinant human Endoglin (human, UniProt P17813 26-586)
T4 construct: It states only that the extracellular domain is residues 26-561; also called rhENG; recombinant human ENG
T4 sequence: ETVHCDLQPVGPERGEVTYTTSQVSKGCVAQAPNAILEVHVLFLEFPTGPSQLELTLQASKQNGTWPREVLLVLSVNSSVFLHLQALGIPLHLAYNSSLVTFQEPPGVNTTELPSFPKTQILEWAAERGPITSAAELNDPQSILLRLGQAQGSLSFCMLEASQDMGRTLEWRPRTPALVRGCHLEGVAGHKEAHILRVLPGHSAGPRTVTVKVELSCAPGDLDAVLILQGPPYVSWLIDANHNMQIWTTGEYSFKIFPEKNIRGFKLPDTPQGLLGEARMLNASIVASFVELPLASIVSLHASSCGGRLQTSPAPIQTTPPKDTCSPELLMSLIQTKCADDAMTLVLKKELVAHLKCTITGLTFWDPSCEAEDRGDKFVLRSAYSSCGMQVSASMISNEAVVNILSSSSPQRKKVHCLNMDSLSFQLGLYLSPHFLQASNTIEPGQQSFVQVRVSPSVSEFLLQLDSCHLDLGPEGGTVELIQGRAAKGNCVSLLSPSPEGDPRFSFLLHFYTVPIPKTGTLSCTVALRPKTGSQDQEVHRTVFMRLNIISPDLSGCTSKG

B1: anti-murine Endoglin mE12-IgG1 (antibody, V domains shown)
VH: EVQLVESGGGVVQPGRSLRLSCAASGFTFSSYGMHWVRQAPGKGLVWVSRINSDGSSTSYADSVKGRFTISRDNSKNTLYLQMNSLRAEDTAVYYCARATGTWVMSWGQGTLVTVSS
VL: SSELIQDPAVSVALGQTVRITCQGDSLRSYYASWYQQKPGQAPVLVIYGKNNRPSGIPDRFSGSSSGNTASLTITGAQAEDEADYYCNSRDSSGTVFGGGTKLTVLG
notes: Full-length human IgG1 (gamma1*/lambda, deficient for ADCC and CDC), made from the scFv mE12 and produced in CHO cells; also called anti-muENG mE12; OCMTX004p
B2: anti-human Endoglin A5-IgG1 (antibody, V domains shown)
VH: EVQLLESGGGLVQPGGSLRLSCAASGFTFSSYAMSWVRQAPGKGLEWVSAIYGSDGDTTYADSVKGRFTISRDNSKNTLYLQMNSLRAEDTAVYYCARVFYTAGFDYWGQGTLVTVSS
VL: DIELTQSPSSLSASVGDRVTITCRASQSISSSLNWYQQKPGKAPKLLIYAASSLQSGVPSRFSGSGSGTDFTLTISSLQPEDFATYYCQQAPAKPPTFGQGTKLEIKR
notes: Full-length human IgG1 (gamma1*/kappa, deficient for ADCC and CDC), made from the scFv A5 and produced in CHO cells; also called anti-huENG A5; A5 anti-huENG IgG1

What was measured:
BSA = target: T5, BSA (UniProt P02769 25-607); assay: ELISA, coated BSA as negative control
T5 construct: also called coated BSA; negative control (BSA)

[1] = target: T1, mouse Endoglin on eEnd2 cells; assay: flow cytometry on ENG-expressing mouse eEnd2 cells
Protocol: (§1) Cell binding was analyzed by flow cytometry, using ENG-positive HT1080 and ENG expressing mouse eEnd2.

[2] = target: T2, recombinant mouse ENG (aa 27-581); assay: ELISA on recombinant mouse ENG, detection with HRP-conjugated anti-human IgG
[3] = target: T3, human Endoglin on HT1080 cells; assay: flow cytometry on ENG-positive HT1080 cells
Protocol: as §1

[4] = target: T4, recombinant human Endoglin; assay: QCM (Attana A100) on rhENG; first of two constants
[5] = target: T4, recombinant human Endoglin; assay: QCM (Attana A100) on rhENG; second of two constants (avidity contribution noted)

T5 sequence (P02769 25-607 limits assumed): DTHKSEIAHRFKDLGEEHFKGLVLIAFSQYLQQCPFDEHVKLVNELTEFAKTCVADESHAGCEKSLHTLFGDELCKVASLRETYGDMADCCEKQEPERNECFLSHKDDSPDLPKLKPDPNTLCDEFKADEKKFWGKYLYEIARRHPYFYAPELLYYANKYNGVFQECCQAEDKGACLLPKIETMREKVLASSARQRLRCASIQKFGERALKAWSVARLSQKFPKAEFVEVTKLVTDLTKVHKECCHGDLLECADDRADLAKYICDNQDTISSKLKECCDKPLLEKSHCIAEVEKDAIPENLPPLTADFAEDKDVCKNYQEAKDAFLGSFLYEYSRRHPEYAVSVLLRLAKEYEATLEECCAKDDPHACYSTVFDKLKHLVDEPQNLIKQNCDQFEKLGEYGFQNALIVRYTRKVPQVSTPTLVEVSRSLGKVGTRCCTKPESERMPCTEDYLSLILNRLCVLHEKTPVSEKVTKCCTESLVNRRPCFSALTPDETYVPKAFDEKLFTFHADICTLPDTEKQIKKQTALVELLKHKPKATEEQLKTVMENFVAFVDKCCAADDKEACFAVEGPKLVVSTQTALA

Binder	binding result (BSA)	EC50 [1]	EC50 [2]	EC50 [3]	Kd [4]	Kd [5]
B1	no binding	89 nM	60 nM			
B2				0.4 nM	260 nM	2.5 nM
